# Laboratory results reported in paper PMC13054468 (Analytical chemistry, 2025).
# Several values for one entry are separate records, joined by “and”; a condition that tells them apart may be missing. Identical values can stand only once.
# B1: cholera toxin B (natural protein)
# chain: TPQNITDLCAEYHNTQIYTLNDKIFSYTESLAGKREMAIITFKNGAIFQVEVPGSQHIDSQKKAIERMKDTLRIAYLTEAKVEKLCVWNNKTPHAIAAISMAN
# notes: also called CTB
# Legend:
# [1] = target: hepatitis B virus (HBV) capsid protein (hepatitis B virus) (UniProt P03146); assay: native MS
# native MS = target: the molecule itself; assay: native MS
Molecule,stoichiometry N [1],binding result (native MS)
hepatitis B virus (HBV) capsid protein (from UniProt P03146 1-183) (natural protein),240 and 180,
B1,,binds
